{"source": "patent US9505841B2", "about": "“Use of an anti-Ang2 antibody” (Samsung Electronics Co., Ltd., priority 2013, dated 2016)", "key": {"mutant Ang2 protein": {"test_system": "mutant Ang2 protein", "experiment": "Epitope ELISA with alanine-mutated Ang2 proteins", "format": "binding, human", "conditions": "A449 substituted with alanine", "experimental": "To verify the epitope (or specific binding site) of the anti-Ang2 antibody prepared in Example 2, an ELISA was performed using a recombinant protein where a receptor binding domain (RBD) of Ang2 protein in the form of being tagged with Flag was mutated by artificial means.\nEach well of a 96-well MaxiSorp™ flat-bottom plate (Nunc) was coated with 50 ul (microliter) of 1000 nM antibody. Then, the plate was washed five times with 0.05% (v/v) Tween-20-containing PBS (PBST) and blocked with 1% (v/v) BSA-containing PBS at a room temperature for 2 hours. 250 ng of each mutant Ang2 protein obtained by substituting S417, Q418, P419, N421, 1434, D448, A449, P452, Y460, N467, K468, or F469 residue of Ang2 protein tagged with a FLAG sequence (DYKDDDDK, Sigma) at its N-terminal with alanine was added to each well of the plate, which was then allowed to react at a room temperature for 2 hours. […]\nFinally, 50 ul of TMB substrates (Cell signaling) was added to each well of the plate to induce color development at a room temperature for 3 min. and the reaction was ceased by the addition of 50 ul of Stop solution (Cell signaling) and then, OD450 values were measured on a plate reader (Molecular Devices). […]"}, "Tie2 and Akt": {"test_system": "Tie2 and Akt", "experiment": "In vivo phosphorylation of Tie2 and Akt in mouse lung tissue", "conditions": "C57BL6 mouse; 5 mg/kg antibody alone or with 20 ug Ang2, tail vein; 1 hour", "experimental": "In addition, the phosphorylation of Tie2 receptor and a protein (Akt) which participates in downstream signaling of Tie2 by treating anti-Ang2 antibody was measured in animal model (in vivo). More particularly, 5 mg/kg of antibody was injected alone or together with 20 ug of Ang2 into tail vein of 7-8 week old C57BL6 mouse, and 1 hour after, lung tissue was removed. The obtained lung tissue was subjected to homogenization lysis using lysis buffer (Roche) and FastPrep kit (MP biomedicals). Activities of Tie2 and Akt in the obtained tissue lysate were measured by the above-described method."}, "[1]": {"test_system": "lymphatic endothelial cells", "experiment": "BrdU proliferation assay, lymphatic endothelial cells", "format": "cell-based", "conditions": "2 ug/ml Ang2 with 10 ug/ml antibody; 3 days", "experimental": "The measurement assay of the proliferation of vascular and lymphatic endothelial cells was conducted using a BrdU assay kit (Roche) Cell. Vascular endothelial cells of P3˜P8 (HUVEC, ATCC) or lymphatic endothelial cells (Lonza) were placed in a collagen-coated 96-well plate (BD Bioscience) at 3000˜5000 cells/well and cultured in EGM-2 media (Lonza) for 16˜24 hours. A mixture of 2 ug/ml of Ang2 (R&D systems) and 10 ug/ml of antibody 10D6 in 2% EBM media was added to the 96-well plate washed with PBS, which was then cultured for 3 days.\nFor efficiency comparison, an anti-Ang2 antibody (MEDI: Medlmmune Co.) was used. For a BrdU assay, 10 ul of BrdU solution diluted at 1:1,000 was added to each well of the plate to label the cells. The cells were cultured for 1 hour and after the removal of the culture solution, 100 ul of Fixation/Denaturation solution (Roche) was added to each well and then, removed after 30-min wait. An anti-BrdU antibody (Roche) conjugated with peroxidase was diluted in a dilution buffer (Roche) at 1:100, added to each well to react for 1 hour and then, washed four times using a washing buffer (Roche). 100 ul of a TMB substrate was added thereto to react and then, absorption was measured at 450 nm using a Microplate reader (Perkin Elmer)."}, "E-selectin": {"test_system": "E-selectin", "experiment": "LPS-induced mRNA expression of E-selectin in HUVEC (qPCR)", "format": "cell-based, human", "conditions": "100 ng/ml LPS 5 hours, 0.2 ug/ml Ang1 or 0.1 ug/ml Ang2 + 0.5 ug/ml antibody", "experimental": "To see anti-inflammatory effects by antibody 10D6, HUVEC (ATCC) cells (4×10^5) were treated with Ang2 alone or Ang2 together with antibody 10D6, and a group in which Ang1 and Ang2 (R&D systems) and Regeneron Co. antibody (RG antibody) were co-treated was included as a control group. HUVEC cells were treated with 0.2 ug/ml of Ang1, 0.1 ug/ml of Ang2, or 0.1 ug/ml of Ang2 and 0.5 ug/ml of antibody, respectively and after 30-min. pre-incubation, they were treated with 100 ng/ml of LPS (Sigma) to induce inflammatory response and incubated for 5 hours.\nThe degree of the inflammatory response was identified by measuring the mRNA expression degree of an inflammatory adhesion substance (ICAM-1, E-selectin). The cells were washed using PBS, RNA was extracted using RNeasy Mini kit (Qiagen), and among them, 2 ug of RNA was synthesized into cDNA using Transcriptor First Strand cDNA synthesis kit (Roche). qPCR reaction was performed using RT2 SYBR™ Green Mastermix (Qiagen) and LightCycler™ 480 Real-Time PCR System (Roche). As an internal control for calibrating the amount of RNA in a sample, HPRT1 was used, and qPCR complied with the following procedures with regard to all the primers.\nStep 1: 95° C., 10 min; Step 2 (45 cycles): Step 2-1: 95° C., 15 sec; Step 2-2: 60° C., 1 min; Step 3: 65° C., 15 sec; Step 4: 95° C., continuous (every 20° C.); Step 6: 40° C., 10 sec."}}, "data": [{"molecule": "10D6: mouse anti-Ang2 monoclonal antibody from hybridoma KCLRF-BP-00295; heavy chain variable region SEQ ID NO: 7, light chain variable region SEQ ID NO: 9 (antibody, V domains shown, Synthetic (Heavy chain variable region of an anti-Ang2 antibody); Synthetic (Light chain variable region of anti-Ang2 antibody)) VH: DVQLQESGPGLVKPSQSLSLTCTVTGYSITSDYAWNWIRQFPGNKLEWMGYINYSGNTDYNPSLKSRSSITRDTSKNQFFLQLNSVTTGDTATYYCARGNFEGAMDYWGQGTSVTVSS VL: SIVMTQTPKFLLVSAGDRVTITCKASQSVSNDVAWYQQKPGQSPKLLIYYASNRYPGVPDRFTGSGYGTDFTFTISTVQAEDLAVYFCQQDYSSPWTFGGGTKLEIK", "values": [{"measurement": "binding affinity (%) with mutant Ang2 against the binding affinity with the native Ang2, 449", "setting": "mutant Ang2 protein", "value": 97.86, "unit": "%"}, {"measurement": "phosphorylation of Tie2 and Akt in lung tissue in vivo", "setting": "Tie2 and Akt", "value": "considerable effect of phosphorylating Tie2 and a protein, Akt"}, {"measurement": "growth of lymphatic endothelial cells (BrdU)", "setting": "[1]", "value": "increased"}, {"measurement": "expression of E-selectin induced by LPS", "setting": "E-selectin", "value": "remarkably suppressed"}]}]}
